B1: CL0020113 (antibody, V domains shown)
VH: QIQLVQSGPELKKPGESLKISCKASGYTFTDYAMQWVKQAPGKGLQYMGWINTQTGKPTYADDFKERFVFSLETSASTAYLKINNLKNDDMATYLCARSYGGEYNWIAYWGQGTLVTVSS
VL: DIVMTQTPSSQAVSAGEKVTMNCKSSQSLLYNENKKNYLAWYQQKPGQSPKLLIYWASTRESGVPDRFIGSGSGTDFTLTISSVQAEDLAVYYCQQSYNFPPTFGGGTKLELK
notes: also called Clone CL0020113
B2: CL0020195 (antibody, V domains shown)
VH: EVQLVESGGGLVQPGRSMMLSCSASGFTFSNYHMAWVRQAPTTGLEWVASITTGSGNTYYRHSVKGRFTISRDNAKSTLYLQMDSLRSEDTASYYCARRWYGGYEGYYFDYWGQGVMVTVSS
VL: DIQMTQSPSLLSASVGDRVTLSCKAGQNVNNYLAWYQQKLGEAPKLLIYNANILQTGFPSRFSGTGSGTDFTLTISSLQPEDVATYFCQQYNSWTTFGGGTKLELK
notes: also called Clone CL0020195
B3: CL0020096 (antibody, V domains shown)
VH: QIQLVQSGPELRKPGETVKISCKASGYTFTTYGMSWVKQAPGKGLKWMGWINTYSGLPRHSDDFKGRFAFSLETSASTAYLQINNLKNEDTATYFCAREVYYGSRKTAWFAYWGQGTLVTVSA
VL: DLVMSQSPSSLAVSVGERVTMSCKSSQSLLYSNDQKNYLAWYQQIPGQSPKLLIYWASTRESGVPDRFTGSGSGTDFTLTISSVKAEDLAVYFCQQYYSYPPTFGAGTKLELK
notes: also called Clone CL0020096
B4: CL0020210 (antibody, V domains shown)
VH: B3 VH
VL: B3 VL with V19I, S22T, I54L, S99N
notes: also called Clone CL0020210; CL020210
B5: CL0020120 (antibody, V domains shown)
VH: EVQLQQSGPELVRTGASVKISCRASSYSFTDNYIHWVKQTHGRSLEWIGYISGYTGATSYNQKFKGKATFTVDTSSSTAYMQFNSLTSEDSAVYYCARSTMIAPYGMDYWGQGTSVTVSS
VL: DIVMTQSHKFMSTSVGDRVNITCKASQDVVTAVAWYQQKPGQSPKLLIYWASTRHTGVPDRFTGSGSGTDFTLTISNVQSEDLADYFCQQYSRYPLTFGAGTKLELK
notes: also called Clone CL0020120
B6: CL0020127 (antibody, V domains shown)
VH: EVQLQQSGPVLVKPGASVKMSCKASGYKFTDYYMNWVKQSHGKSLEWIGTINPYSGGISYNQKFKGKATLTVDKSSSTAYMELNSLTSEASAVYYCTRRNWDGRYAMDYWGQGTSVTVSS
VL: B5 VL with N20S, V30S, D85E, R93S, L96F, A100G, L106I
notes: also called Clone CL0020127
B7: CL0020206 (antibody, V domains shown)
VH: B6 VH with K28T, T50I, T69I
VL: B5 VL with N20S, C23Y, V30G, T31S, A51T, R93S, L96F, A100G, L106I
notes: also called Clone CL0020206
B8: CL0020205 (antibody, V domains shown)
VH: EVQLQQSGPVLVKPGASVKMSCKASGYTFTDYYVHWVKQSHGKSLEWIGLINPYTGTTSYNQRFRVKATLTVDKSSSTAYMEVNSLTSEDSAVYYCARSRVYYGSSLFAFWGQGTLVTVSA
VL: DIVMTQSPSSLSVSAGEKVTMSCKSSQSLLNSGNQKNYLAWYQQKPGQPPKLLIYGASTRESGVPDRFTGSGSGTDFTLTISSVQAEDLAVYYCQNDHSYPYTFGGGTKLEIK
notes: also called Clone CL0020205

Consider 8 molecules from patent US20220119522A1 (DENALI THERAPEUTICS, published 2022).

Changes are numbered by the printed parent chain. No end group written: not given here.

The first assay addresses T1, human TREM2 on the cell surface (human, UniProt Q9NZC2 19-230).
T1 sequence: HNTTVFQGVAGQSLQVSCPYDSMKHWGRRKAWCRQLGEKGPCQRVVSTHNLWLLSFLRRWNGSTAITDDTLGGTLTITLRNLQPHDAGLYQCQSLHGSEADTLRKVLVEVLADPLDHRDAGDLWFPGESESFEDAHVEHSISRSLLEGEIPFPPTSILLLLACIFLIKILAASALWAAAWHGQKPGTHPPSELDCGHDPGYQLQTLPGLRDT
In words: cell-based or functional assay.
Turning to B1, the “NFAT EC50 (nM), plate coated mAb” value is 185 nM; the “Survival EC50 (nM), plate coated mAb, human macrophages” value (“Survival EC50 (nM), plate coated mAb” below) was 24.8 nM; the “pSyk activation (human macrophages) EC50 (nM)” value (from here on “pSyk activation”) came out at 24.8 nM.
With B2, the “NFAT EC50 (nM), plate coated mAb” value was found to be 98.3 nM and the “pSyk activation” value amounted to 12 nM.
For B3, the “NFAT EC50 (nM), plate coated mAb” value turned out to be 16.2 nM; the “Survival EC50 (nM), plate coated mAb” value is 1.8 nM; the “pSyk activation” value was 30.9 nM.
Turning to B4, the “NFAT EC50 (nM), plate coated mAb” value came out at 11.7 nM and the “pSyk activation” value was found to be 37.4 nM.
Turning to B5, the “NFAT EC50 (nM), plate coated mAb” value turned out to be 195 nM; the “Survival EC50 (nM), plate coated mAb” value amounted to 17.8 nM; the “pSyk activation” value turned out to be 24.2 nM.
Consider B6, for which the “NFAT EC50 (nM), plate coated mAb” value came out at 20.5 nM and the “pSyk activation” value came to 11.9 nM.
On the same counts, the results for B7 are 69.9 nM and 20.7 nM.
B8: the “NFAT EC50 (nM), plate coated mAb” value was determined as 67.7 nM; the “Survival EC50 (nM), plate coated mAb” value amounted to 5.7 nM; the “pSyk activation” value is 14.3 nM.

The next assay deals with T1, human TREM2 on the cell surface. In words: cell binding, human macrophages, dose titration.
In the case of B1, the EC50 was 2.1 nM.
Turning to B2, the EC50 stood at 1.3 nM.
On to B3, for which the EC50 stood at 14 nM.
The molecule B4 came in with an EC50 of 0.9 nM.
Molecule B5 had an EC50 of 1.6 nM.
For the molecule B6, the EC50 stood at 11 nM.
On the same count and under the same terms, under B7 stands 4.8 nM.
In turn, B8 showed an EC50 of 2.1 nM.

Another assay deals with T2, human TREM2 full length stalk region peptide (aa 129-172) (human, biotinylated (site not stated)).
T2 construct: also called Human TREM2 peptide (aa 129-172); full-length TREM2 stalk peptide
T2 peptide: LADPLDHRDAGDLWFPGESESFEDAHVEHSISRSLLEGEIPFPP
Nature of the assay: ELISA on biotinylated peptide captured by streptavidin; A450 normalised to isotype control. Here is the method: (§1) TREM2 antibodies were evaluated for binding to human and mouse TREM2 stalk region peptides. […] Antibody binding to TREM2 stalk peptides was detected using standard sandwich ELISA. Briefly, a 96-well half-area ELISA plate was coated with streptavidin overnight at 4° C. The following day, biotinylated TREM2 stalk peptides diluted in 1% BSA/PBS were added to the plate and incubated for 1 hour. Antibodies diluted in 1% BSA/PBS were then added and incubated for 1 hour. Antibodies bound to peptide were detected with anti-human kappa-HRP secondary antibody (Bethyl Laboratories, Inc.) diluted in 1% BSA/PBS. Plates were assayed by reaction with a detection reagent (One-step TMB Ultra, Thermo) and measurement of absorbance at 450 nm (A450) by standard spectrophotometry instrumentation (BioTek®). Data are shown as normalized values (fold over background where background=isotype control).
In the case of B1, the “fold over background (A450)” value was 47 fold.
In the case of B2, the “fold over background (A450)” value was found to be 1.3 fold.
Turning to B3, the “fold over background (A450)” value stood at 45 fold.
Regarding B4, the “fold over background (A450)” value came out at 50 fold.
Still for that read-out and setting: under B5 stands 1.2 fold; under B6, 1.4 fold.
Regarding B7, the “fold over background (A450)” value was found to be 1.8 fold.
As to B8, the “fold over background (A450)” value was found to be 1.3 fold.

The next assay has as its target T3, human TREM2 truncated stalk peptide (aa 149-163) (human, also: biotinylated (site not given here)).
T3 construct: also called Human TREM2 peptide (aa 149-163); truncated stalk peptide containing the ADAM10/17 cleavage site
T3 peptide: SFEDAHVEHSISRSL
The assay is described as above. How it is done: as §1
For the molecule B1, the “fold over background (A450)” value was found to be 1.4 fold.
Regarding B2, the “fold over background (A450)” value was 1.1 fold.
Still for that read-out and setting: under B4 stands 1.5 fold; under B5, 1.2 fold.
For the molecule B6, the “fold over background (A450)” value was 1.2 fold.
B7: the “fold over background (A450)” value was 1.6 fold.
Same read-out and setting: under B8 stands 1.2 fold.

In another assay the target is T4, mouse TREM2 full length stalk region peptide (aa 131-169) (mouse, UniProt Q99NH8 131-169, biotinylated (site not stated)).
T4 peptide (looked up): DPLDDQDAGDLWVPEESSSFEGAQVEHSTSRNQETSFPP
Described as above. Here is the method:
as §1
On to B2, for which the “fold over background (A450)” value came to 1.1 fold.
In the case of B3, the “fold over background (A450)” value amounted to 45 fold.
In the case of B4, the “fold over background (A450)” value stood at 25 fold.
Consider B5, for which the “fold over background (A450)” value is 1.2 fold.
For B6, the “fold over background (A450)” value is 1.3 fold.
On to B7, for which the “fold over background (A450)” value amounted to 1.6 fold.
As to B8, the “fold over background (A450)” value was 1.1 fold.

A further assay deals with T5, His-tagged human TREM2 ECD (human, UniProt Q9NZC2 19-172).
T5 construct: Biacore and HDX say only recombinant human TREM2 (ECD); also called recombinant human TREM2; hTREM2
T5 sequence: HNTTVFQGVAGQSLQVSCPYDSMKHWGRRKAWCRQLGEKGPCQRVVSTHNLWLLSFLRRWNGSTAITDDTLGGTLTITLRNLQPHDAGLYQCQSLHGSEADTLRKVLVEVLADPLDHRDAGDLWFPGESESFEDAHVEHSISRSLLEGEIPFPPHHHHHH
In words: SPR (Biacore), antibody captured via anti-human Fab, recombinant TREM2 ECD injected, 1:1 fit. Here is the method: Surface plasmon resonance (Biacore™ 8K instrument) was used to measure anti-TREM2 antibody affinities for human and cynomolgus TREM2 ECD. Anti-TREM2 antibodies were captured using Human Fab Capture Kit (GE Healthcare Life Sciences, Catalog No. 28958325) on a Biacore Series S CM5 sensor chip (GE Healthcare Life Sciences, Catalog No. 29149604). Serial 3-fold dilutions of recombinant human or cynomolgus TREM2 were injected at a flow rate of 30 μL/min. Antibody binding was monitored for 300 seconds, followed by monitoring of antibody dissociation for 600+seconds in HBS-EP+ running buffer (GE Healthcare Life Sciences, Catalog No. BR100669). The binding response was corrected by subtracting the RU value from a blank flow cell. A 1:1 Languir model of simultaneous fitting of kₒₙ and koff was used for kinetics analysis.
In the case of B1, the dissociation constant Kd came out at 7.81 nM.
Take B2: the Kd was determined as 25.7 nM.
Turning to B3, the Kd came to 5.54 nM.
As to B4, the Kd stood at 6.27 nM.
As for B5, the Kd came out at 4.04 nM.
Still for that read-out and setting: under B6 stands 3.37 nM; under B7, 1.82 nM; under B8, 1.52 nM.
